In the supplement of paper PMC6755084:

Tested on: F1*sub RNA substrate (template-directed ligation)
Assay: fraction ligated after 30 min (ligated reads / total reads); higher = more ligase activity; sequences stand for … in GAGACCGCAACTGAAAAGTTGT…AGTTCTGCACGTAGAAGCAAAAGGC
Details: 42 °C
In short: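 Oligo-pool templates underwent PCR amplification, T7 transcription and gel purification to yield ribozyme variants. Gel-separated ligated and unligated bands were converted to complementary DNA with barcoded primers and sequenced on a MiSeq, keeping core bases of quality ≥20. The ratio of ligated reads to total reads gave the fraction ligated for every variant.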

Point of comparison: TTCACTTGTCGTAAGACACTTTGGATGGGTTGA [1d2], fraction ligated 0.789. Against it:
- TTCACTTGCGTAAGACATTTGGATGGGTTGA [3d379] — lower, 0.768
- TTCACTTGCGTAAGACCTTTGGATGGGTTGA [3d378] — lower, 0.311
- TTCACTTGCGTAAGCACTTTGGATGGGTTGA [3d376] — higher, 0.804
- TTCACTTGCGTAGACACTTTGGATGGGTTGA [3d374] — lower, 0.736
- TTCACTTGCTAAGACACTTTGGATGGGTTGA [3d372] — lower, 0.729
- TTCACTTGGTAAGACACTTTGGATGGGTTGA [3d371] — lower, 0.708
- TTCACTTGTCAAGACACTTTGGATGGGTTGA [3d402] — lower, 0.719
- TTCACTTGTCGAAACACTTTGGATGGGTTGA [3d417] — lower, 0.0407
- TTCACTTGTCGAAGAACTTTGGATGGGTTGA [3d419] — lower, 0.45
- TTCACTTGTCGAAGACACTTGGATGGGTTGA [3d422] — lower, 0.5
- TTCACTTGTCGAAGACACTTTGATGGGTTGA [3d423] — lower, 0.17
- TTCACTTGTCGAAGACACTTTGGAGGGTTGA [3d425] — lower, 0.157
- TTCACTTGTCGAAGACACTTTGGATGGGTTA [3d427] — lower, 0.28
- TTCACTTGTCGAAGACACTTTGGATGGGTTG [3d428] — lower, 0.78
- TTCACTTGTCGAAGACACTTTGGATGGGTTGA [2d33] — lower, 0.775
- TTCACTTGTCGAAGACACTTTGGATGGTTGA [3d426] — lower, 0.578
- TTCACTTGTCGAAGACACTTTGGTGGGTTGA [3d424] — lower, 0.0265
- TTCACTTGTCGAAGACATTTGGATGGGTTGA [3d421] — higher, 0.79
- TTCACTTGTCGAAGACCTTTGGATGGGTTGA [3d420] — lower, 0.66
- TTCACTTGTCGAAGCACTTTGGATGGGTTGA [3d418] — lower, 0.287
- TTCACTTGTCGAGACACTTTGGATGGGTTGA [3d416] — lower, 0.206
- TTCACTTGTCGTAAAACTTTGGATGGGTTGA [3d442] — lower, 0.623
- TTCACTTGTCGTAAACACTTGGATGGGTTGA [3d445] — lower, 0.0492
- TTCACTTGTCGTAAACACTTTGATGGGTTGA [3d446] — lower, 0.0177
- TTCACTTGTCGTAAACACTTTGGAGGGTTGA [3d448] — lower, 0.0223
- TTCACTTGTCGTAAACACTTTGGATGGGTTA [3d450] — lower, 0.0146
- TTCACTTGTCGTAAACACTTTGGATGGGTTG [3d451] — lower, 0.177
- TTCACTTGTCGTAAACACTTTGGATGGGTTGA [2d35] — lower, 0.646
- TTCACTTGTCGTAAACACTTTGGATGGTTGA [3d449] — lower, 0.067
- TTCACTTGTCGTAAACACTTTGGTGGGTTGA [3d447] — lower, 0.0202
- TTCACTTGTCGTAAACATTTGGATGGGTTGA [3d444] — higher, 0.804
- TTCACTTGTCGTAAACCTTTGGATGGGTTGA [3d443] — lower, 0.514
- TTCACTTGTCGTAACACTTTGGATGGGTTGA [3d430] — lower, 0.728
- TTCACTTGTCGTAAGAACTTGGATGGGTTGA [3d463] — lower, 0.226
- TTCACTTGTCGTAAGAACTTTGATGGGTTGA [3d464] — lower, 0.119
- TTCACTTGTCGTAAGAACTTTGGAGGGTTGA [3d466] — lower, 0.0901
- TTCACTTGTCGTAAGAACTTTGGATGGGTTA [3d468] — lower, 0.0936
- TTCACTTGTCGTAAGAACTTTGGATGGGTTG [3d469] — lower, 0.533
- TTCACTTGTCGTAAGAACTTTGGATGGGTTGA [2d37] — lower, 0.748
- TTCACTTGTCGTAAGAACTTTGGATGGTTGA [3d467] — lower, 0.279
- TTCACTTGTCGTAAGAACTTTGGTGGGTTGA [3d465] — lower, 0.019
- TTCACTTGTCGTAAGAATTTGGATGGGTTGA [3d462] — lower, 0.693
- TTCACTTGTCGTAAGACACTGGATGGGTTGA [3d484] — lower, 0.705
- TTCACTTGTCGTAAGACACTTGATGGGTTGA [3d485] — lower, 0.0622
- TTCACTTGTCGTAAGACACTTGGAGGGTTGA [3d487] — lower, 0.0171
- TTCACTTGTCGTAAGACACTTGGATGGGTTA [3d489] — lower, 0.0495
- TTCACTTGTCGTAAGACACTTGGATGGGTTG [3d490] — lower, 0.288
- TTCACTTGTCGTAAGACACTTGGATGGGTTGA [2d40] — lower, 0.656
- TTCACTTGTCGTAAGACACTTGGATGGTTGA [3d488] — lower, 0.161
- TTCACTTGTCGTAAGACACTTGGTGGGTTGA [3d486] — lower, 0.00989
- TTCACTTGTCGTAAGACACTTTATGGGTTGA [3d491] — lower, 0.00731
- TTCACTTGTCGTAAGACACTTTGAGGGTTGA [3d493] — lower, 0.0469
- TTCACTTGTCGTAAGACACTTTGATGGGTTA [3d495] — lower, 0.0395
- TTCACTTGTCGTAAGACACTTTGATGGGTTG [3d496] — lower, 0.298
- TTCACTTGTCGTAAGACACTTTGATGGGTTGA [2d41] — lower, 0.553
- TTCACTTGTCGTAAGACACTTTGATGGTTGA [3d494] — lower, 0.0545
- TTCACTTGTCGTAAGACACTTTGGAGGGTTA [3d502] — lower, 0.0179
- TTCACTTGTCGTAAGACACTTTGGAGGGTTG [3d503] — lower, 0.103
- TTCACTTGTCGTAAGACACTTTGGAGGGTTGA [2d43] — lower, 0.227
- TTCACTTGTCGTAAGACACTTTGGAGGTTGA [3d501] — lower, 0.00904
- TTCACTTGTCGTAAGACACTTTGGATGGGTT [3d506] — lower, 0.0428
- TTCACTTGTCGTAAGACACTTTGGATGGGTTA [2d45] — lower, 0.619
- TTCACTTGTCGTAAGACACTTTGGATGGGTTG [2d46] — higher, 0.792
- TTCACTTGTCGTAAGACACTTTGGATGGTTA [3d504] — lower, 0.636
- TTCACTTGTCGTAAGACACTTTGGATGGTTG [3d505] — lower, 0.681
- TTCACTTGTCGTAAGACACTTTGGATGGTTGA [2d44] — lower, 0.739
- TTCACTTGTCGTAAGACACTTTGGGGGTTGA [3d497] — lower, 0.0262
- TTCACTTGTCGTAAGACACTTTGGTGGGTTA [3d499] — lower, 0.00711
- TTCACTTGTCGTAAGACACTTTGGTGGGTTG [3d500] — lower, 0.0269
- TTCACTTGTCGTAAGACACTTTGGTGGGTTGA [2d42] — lower, 0.0345
- TTCACTTGTCGTAAGACACTTTGGTGGTTGA [3d498] — lower, 0.014
- TTCACTTGTCGTAAGACACTTTGTGGGTTGA [3d492] — lower, 0.0104
- TTCACTTGTCGTAAGACATTGGATGGGTTGA [3d477] — lower, 0.653
- TTCACTTGTCGTAAGACATTTGATGGGTTGA [3d478] — lower, 0.0347
- TTCACTTGTCGTAAGACATTTGGAGGGTTGA [3d480] — lower, 0.0169
- TTCACTTGTCGTAAGACATTTGGATGGGTTA [3d482] — lower, 0.167
- TTCACTTGTCGTAAGACATTTGGATGGGTTG [3d483] — lower, 0.731
- TTCACTTGTCGTAAGACATTTGGATGGGTTGA [2d39] — lower, 0.776
- TTCACTTGTCGTAAGACATTTGGATGGTTGA [3d481] — lower, 0.25
- TTCACTTGTCGTAAGACATTTGGTGGGTTGA [3d479] — lower, 0.0115
- TTCACTTGTCGTAAGACCTTGGATGGGTTGA [3d470] — lower, 0.678
- TTCACTTGTCGTAAGACCTTTGATGGGTTGA [3d471] — lower, 0.164
- TTCACTTGTCGTAAGACCTTTGGAGGGTTGA [3d473] — lower, 0.073
- TTCACTTGTCGTAAGACCTTTGGATGGGTTA [3d475] — lower, 0.347
- TTCACTTGTCGTAAGACCTTTGGATGGGTTG [3d476] — lower, 0.77
- TTCACTTGTCGTAAGACCTTTGGATGGGTTGA [2d38] — higher, 0.793
- TTCACTTGTCGTAAGACCTTTGGATGGTTGA [3d474] — lower, 0.523
- TTCACTTGTCGTAAGACCTTTGGTGGGTTGA [3d472] — lower, 0.0157
- TTCACTTGTCGTAAGACTTTGGATGGGTTGA [3d452] — lower, 0.752
- TTCACTTGTCGTAAGCACTTGGATGGGTTGA [3d455] — lower, 0.231
- TTCACTTGTCGTAAGCACTTTGATGGGTTGA [3d456] — lower, 0.0811
- TTCACTTGTCGTAAGCACTTTGGAGGGTTGA [3d458] — lower, 0.051
- TTCACTTGTCGTAAGCACTTTGGATGGGTTA [3d460] — lower, 0.0582
- TTCACTTGTCGTAAGCACTTTGGATGGGTTG [3d461] — lower, 0.601
- TTCACTTGTCGTAAGCACTTTGGATGGGTTGA [2d36] — lower, 0.771
- TTCACTTGTCGTAAGCACTTTGGATGGTTGA [3d459] — lower, 0.164
- TTCACTTGTCGTAAGCACTTTGGTGGGTTGA [3d457] — lower, 0.0197
- TTCACTTGTCGTAAGCATTTGGATGGGTTGA [3d454] — lower, 0.769
- TTCACTTGTCGTAAGCCTTTGGATGGGTTGA [3d453] — lower, 0.525
- TTCACTTGTCGTAGAACTTTGGATGGGTTGA [3d432] — lower, 0.761
- TTCACTTGTCGTAGACACTTGGATGGGTTGA [3d435] — lower, 0.489
- TTCACTTGTCGTAGACACTTTGATGGGTTGA [3d436] — lower, 0.258
- TTCACTTGTCGTAGACACTTTGGAGGGTTGA [3d438] — lower, 0.149
- TTCACTTGTCGTAGACACTTTGGATGGGTTA [3d440] — lower, 0.341
- TTCACTTGTCGTAGACACTTTGGATGGGTTG [3d441] — higher, 0.801
- TTCACTTGTCGTAGACACTTTGGATGGGTTGA [2d34] — higher, 0.798
- TTCACTTGTCGTAGACACTTTGGATGGTTGA [3d439] — lower, 0.57
- TTCACTTGTCGTAGACACTTTGGTGGGTTGA [3d437] — lower, 0.0435
- TTCACTTGTCGTAGACATTTGGATGGGTTGA [3d434] — lower, 0.742
- TTCACTTGTCGTAGACCTTTGGATGGGTTGA [3d433] — lower, 0.751
- TTCACTTGTCGTAGCACTTTGGATGGGTTGA [3d431] — lower, 0.735
- TTCACTTGTCGTGACACTTTGGATGGGTTGA [3d429] — lower, 0.255
